Results from patent US20130171217A1, “ENZYMATIC PERACID GENERATION FOR USE IN SKIN CARE PRODUCTS” (E I DU PONT DE NEMOURS AND COMPANY, priority 2010, published 2013).
Where a chain is given by its changes, count along the chain named. Names may count otherwise.

B1: SEQ ID NO: 335: L29P variant of Pseudomonas fluorescens hydrolase fused to hair binding domain HC1010 via a flexible linker (protein)
chain: MSTFVAKDGTQIYFKDWGSGKPVLFSHGWPLDADMWEYQMEYLSSRGYRTIAFDRRGFGRSDQPWTGNDYDTFADDIAQLIEHLDLKEVTLVGFSMGGGDVARYIARHGSARVAGLVLLGAVTPLFGQKPDYPQGVPLDVFARFKTELLKDRAQFISDFNAPFYGINKGQVVSQGVQTQTLQIALLASLKATVDCVTAFAETDFRPDMAKIDVPTLVIHGDGDQIVPFETTGKVAAELIKGAELKVYKDAPHGFAVTHAQQLNEDLLAFLKRGPGSGGAGSPGSAGGPGSAQSQLPDKHSGLHERAPQRYGSGTAEIQSSKNPNPHPQRSWTNGSGHNHMQERYTDPQHSPSVNGLGSGHDHKNQKETHQRHAASSHHHHHH
B2: SEQ ID NO: 337: L29P variant of Pseudomonas fluorescens hydrolase fused to the charged peptide (GK)5-His6 via a flexible linker (protein)
chain: MSTFVAKDGTQIYFKDWGSGKPVLFSHGWPLDADMWEYQMEYLSSRGYRTIAFDRRGFGRSDQPWTGNDYDTFADDIAQLIEHLDLKEVTLVGFSMGGGDVARYIARHGSARVAGLVLLGAVTPLFGQKPDYPQGVPLDVFARFKTELLKDRAQFISDFNAPFYGINKGQVVSQGVQTQTLQIALLASLKATVDCVTAFAETDFRPDMAKIDVPTLVIHGDGDQIVPFETTGKVAAELIKGAELKVYKDAPHGFAVTHAQQLNEDLLAFLKRGPGSGGAGSPGSAGGPGSGKGKGKGKGKHHHHHH
B3: SEQ ID NO: 331: L29P variant of the hydrolase from Pseudomonas fluorescens fused to hair binding domain HC263 via a flexible linker (protein)
chain: MSTFVAKDGTQIYFKDWGSGKPVLFSHGWPLDADMWEYQMEYLSSRGYRTIAFDRRGFGRSDQPWTGNDYDTFADDIAQLIEHLDLKEVTLVGFSMGGGDVARYIARHGSARVAGLVLLGAVTPLFGQKPDYPQGVPLDVFARFKTELLKDRAQFISDFNAPFYGINKGQVVSQGVQTQTLQIALLASLKATVDCVTAFAETDFRPDMAKIDVPTLVIHGDGDQIVPFETTGKVAAELIKGAELKVYKDAPHGFAVTHAQQLNEDLLAFLKRGPGSGGAGSPGSAGGPGSPSAQSQLPDKHSGLHERAPQRYGPEPEPEPEPIPEPPKEAPVVIEKPKPKPKPKPKPPAHDHKNQKETHQRHAAGSGGGGSPHHHHHH
B4: SEQ ID NO: 333: L29P variant of Pseudomonas fluorescens hydrolase fused to hair binding domain HC263KtoR via a flexible linker (protein)
chain: B3 chain with K300R, K328R, K336R, K338R, K340R, K342R, K344R, K346R, K353R, K356R
B5: SEQ ID NO: 321: acetyl xylan esterase from Mesorhizobium loti fused at its C-terminus to hair binding domain HC263 via a flexible linker (protein)
chain: MPFPDLIQPELGAYVSSVGMPDDFAQFWTSTIAEARQAGGEVSIVQAQTTLKAVQSFDVTFPGYGGHPIKGWLILPTHHKGRLPLVVQYIGYGGGRGLAHEQLHWAASGFAYFRMDTRGQGSDWSVGETADPVGSTSSIPGFMTRGVLDKNDYYYRRLFTDAVRAIDALLGLDFVDPERIAVCGDSQGGGISLAVGGIDPRVKAVMPDVPFLCDFPRAVQTAVRDPYLEIVRFLAQHREKKAAVFETLNYFDCVNFARRSKAPALFSVALMDEVCPPSTVYGAFNAYAGEKTITEYEFNNHEGGQGYQERQQMTWLSRLFGVGGPGSGGAGSPGSAGGPGSPSAQSQLPDKHSGLHERAPQRYGPEPEPEPEPIPEPPKEAPVVIEKPKPKPKPKPKPPAHDHKNQKETHQRHAAGSGGGGSPHHHHHH
B6: SEQ ID NO: 319: acetyl xylan esterase from Lactococcus lactis fused at its C-terminus to hair binding domain HC263 via a flexible linker (protein)
chain: MTKINNWQDYQGSSLKPEDFDKFWDEKINLVSNHQFEFELIEKNLSSKVVNFYHLWFTAIDGAKIHAQLIVPKNLKEKYPAILQFHGYHCDSGDWVDKIGIVAEGNVVLALDCRGQGGLSQDNIQTMGMTMKGLIVRGIDEGYENLYYVRQFMDLITATKILSEFDFVDETNISAQGASQGGALAVACAALSPLIKKVTATYPFLSDYRKAYELGAEESAFEELPYWFQFKDPLHLREDWFFNQLEYIDIQNLAPRIKAEVIWILGGKDTVVPPITQMAAYNKIQSKKSLYVLPEYGHEYLPKISDWLRENQGPGSGGAGSPGSAGGPGSPSAQSQLPDKHSGLHERAPQRYGPEPEPEPEPIPEPPKEAPVVIEKPKPKPKPKPKPPAHDHKNQKETHQRHAAGSGGGGSPHHHHHH
B7: SEQ ID NO: 325: S54V variant of Mycobacterium smegmatis aryl esterase fused to hair binding domain HC263KtoR via a flexible linker (protein)
chain: MAKRILCFGDSLTWGWVPVEDGAPTERFAPDVRWTGVLAQQLGADFEVIEEGLVARTTNIDDPTDPRLNGASYLPSCLATHLPLDLVIIMLGTNDTKAYFRRTPLDIALGMSVLVTQVLTSAGGVGTTYPAPKVLVVSPPPLAPMPHPWFQLIFEGGEQKTTELARVYSALASFMKVPFFDAGSVISTDGVDGIHFTEANNRDLGVALAEQVRSLLGPGSGGAGSPGSAGGPGSPSAQSQLPDRHSGLHERAPQRYGPEPEPEPEPIPEPPREAPVVIERPRPRPRPRPRPPAHDHRNQRETHQRHAAGSGGGGSPHHHHHH
B8: SEQ ID NO: 327: S54V variant of Mycobacterium smegmatis aryl esterase fused to hair binding domain HC1010 via a flexible linker (protein)
chain: MAKRILCFGDSLTWGWVPVEDGAPTERFAPDVRWTGVLAQQLGADFEVIEEGLVARTTNIDDPTDPRLNGASYLPSCLATHLPLDLVIIMLGTNDTKAYFRRTPLDIALGMSVLVTQVLTSAGGVGTTYPAPKVLVVSPPPLAPMPHPWFQLIFEGGEQKTTELARVYSALASFMKVPFFDAGSVISTDGVDGIHFTEANNRDLGVALAEQVRSLLGPGSGGAGSPGSAGGPGSAQSQLPDKHSGLHERAPQRYGSGTAEIQSSKNPNPHPQRSWTNGSGHNHMQERYTDPQHSPSVNGLGSGHDHKNQKETHQRHAASSHHHHHH
B9: SEQ ID NO: 329: S54V variant of Mycobacterium smegmatis aryl esterase fused to the charged peptide (GK)5-His6 via a flexible linker (protein)
chain: MAKRILCFGDSLTWGWVPVEDGAPTERFAPDVRWTGVLAQQLGADFEVIEEGLVARTTNIDDPTDPRLNGASYLPSCLATHLPLDLVIIMLGTNDTKAYFRRTPLDIALGMSVLVTQVLTSAGGVGTTYPAPKVLVVSPPPLAPMPHPWFQLIFEGGEQKTTELARVYSALASFMKVPFFDAGSVISTDGVDGIHFTEANNRDLGVALAEQVRSLLGPGSGGAGSPGSAGGPGSGKGKGKGKGKHHHHHH
B10: SEQ ID NO: 317: acetyl xylan esterase from Bacillus pumilus fused at its C-terminus to hair binding domain HC263 via a flexible linker (protein)
chain: MQLFDLSLEELKKYKPKKTARPDFSDFWKKSLEELRQVEAEPTLESYDYPVKGVKVYRLTYQSFGHSKIEGFYAVPDQTGPHPALVRFHGYNASYDGGIHDIVNWALHGYATFGMLVRGQGGSEDTSVTPGGHALGWMTKGILSKDTYYYRGVYLDAVRALEVIQSFPEVDEHRIGVIGGSQGGALAIAAAALSDIPKVVVADYPYLSNFERAVDVALEQPYLEINSYFRRNSDPKVEEKAFETLSYFDLINLAGWVKQPTLMAIGLIDKITPPSTVFAAYNHLETDKDLKVYRYFGHEFIPAFQTEKLSFLQKHLLLSTGPGSGGAGSPGSAGGPGSPSAQSQLPDKHSGLHERAPQRYGPEPEPEPEPIPEPPKEAPVVIEKPKPKPKPKPKPPAHDHKNQKETHQRHAAGSGGGGSPHHHHHH

Assay: Perhydrolase activity of targeted hydrolases, ABTS assay
Format: biochemical
Conditions: 1 m Na acetate at pH 5.5 instead of triacetin
Experimental: The ABTS assay was performed as follows: hair samples treated as described above were transferred to new 2-mL microcentrifuge tubes (Eppendorf Protein LoBind; Eppendorf North America, Hauppauge, N.Y.) To each tube was added 480 μL of PAH buffer ([…]), 14 μL of 39% hydrogen peroxide (Sigma 3410), and 6 μL triacetin (Sigma-Aldrich W200700). The perhydrolase reaction was allowed to proceed for 10 minutes at room temperature (˜22-25° C.). The reaction was stopped by diluting aliquots 10×, 100× and 1000× with 10 mM phosphoric acid. For detection 50 μL of 1 M acetic acid, 50 μL of 40 mg/mL potassium iodide, and 50 μL of 4 mM ABTS (2,2′-azino-bis(3-ethylbenzthiazoline-6-sulphonic acid; Sigma, St Louis, Mo.) were added to 50 μL of the above dilutions. Color was allowed to develop for 10 minutes and read in a spectrophotometer at 405 nm. Values from no-enzyme controls were subtracted to yield values attributable only to enzyme activity. A standard curve of OD 405 nm vs PAA concentration in ppm yielded a conversion factor of 8.75, such that an OD 405 nm of 1.0 corresponded to approximately 8.75 ppm PAA. This value was then multiplied by the appropriate dilution to arrive at the PAA concentration in the perhydrolase reaction.
The perhydrolase activity of the enzymes targeted to hair with a variety of targeting domains produced as described in Example 32 was measured with the ABTS assay.
B1 gave a Specific perhydrolase activity of 1.5 µmol/mg/min. B2 showed a Specific perhydrolase activity of 2.65 µmol/mg/min. Molecule B3 has a Specific perhydrolase activity of 0.37 µmol/mg/min. Molecule B4 has a Specific perhydrolase activity of 1.45 µmol/mg/min.

Same assay, conditions: triacetin at pH 7.5
Molecule B5 has a Specific perhydrolase activity of 34 µmol/mg/min. B6 gave a Specific perhydrolase activity of 99 µmol/mg/min. B7 showed a Specific perhydrolase activity of 46 µmol/mg/min. B8 gave a Specific perhydrolase activity of 20 µmol/mg/min. B9 showed a Specific perhydrolase activity of 264 µmol/mg/min. B10 gave a Specific perhydrolase activity of 40 µmol/mg/min.
